Columns and labels:
[1] = target: T1, CD16 (human, UniProt P08637 17-254); assay: binding to NK cells (method not told)
T1 construct: whole, on cells; CD16 is the antigen of the 3G8 arm of these molecules; also called FcγRIII

[2] = target: T2, EGFR (UniProt P00533 25-1210); assay: flow cytometry, anti-HIS antibody
T2 construct: whole, on cells

[3] = target: T3, ROR1 (UniProt Q01973 30-937, limits assumed); assay: flow cytometry, anti-HIS antibody
T3 construct: whole, on cells

[4] = target: T4, CD70 (UniProt P32970 1-193, limits assumed); assay: flow cytometry, anti-HIS antibody
T4 construct: whole, on cells
T4 sequence (looked up): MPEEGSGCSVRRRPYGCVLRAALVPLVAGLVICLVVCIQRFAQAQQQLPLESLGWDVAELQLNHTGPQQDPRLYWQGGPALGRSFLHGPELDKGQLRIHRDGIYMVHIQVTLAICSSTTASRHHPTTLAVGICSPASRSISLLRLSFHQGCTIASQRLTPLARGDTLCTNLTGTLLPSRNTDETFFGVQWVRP

[5] = target: T5, CD79B (UniProt P40259 29-229, limits assumed); assay: flow cytometry, anti-HIS antibody
T5 construct: whole, on cells
T5 sequence (looked up): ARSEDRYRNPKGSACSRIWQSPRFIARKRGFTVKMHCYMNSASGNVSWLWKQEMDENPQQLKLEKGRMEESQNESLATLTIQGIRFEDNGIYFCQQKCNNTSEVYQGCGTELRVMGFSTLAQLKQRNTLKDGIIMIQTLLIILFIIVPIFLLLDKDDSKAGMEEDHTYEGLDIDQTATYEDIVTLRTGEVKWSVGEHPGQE

[6] = target: T6, CD33 (UniProt P20138 18-364, limits assumed); assay: flow cytometry, anti-HIS antibody
T6 construct: whole, on cells; Endogenous on human cell lines; also called Siglec-3

[7] = target: T7, CD135 (UniProt P36888 27-993, limits assumed); assay: flow cytometry, anti-HIS antibody
T7 construct: whole, on cells; also called FLT-3

[8] = target: T8, BCMA (UniProt Q02223 1-184, limits assumed); assay: flow cytometry, anti-HIS antibody
T8 construct: whole, on cells
T8 sequence (looked up): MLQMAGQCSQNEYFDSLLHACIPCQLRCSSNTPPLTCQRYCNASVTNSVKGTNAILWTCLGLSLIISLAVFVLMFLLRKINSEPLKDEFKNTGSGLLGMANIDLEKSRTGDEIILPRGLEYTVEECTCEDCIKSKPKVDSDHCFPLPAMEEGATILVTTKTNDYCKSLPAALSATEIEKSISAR

[9] = target: T9, CD123 (UniProt P26951 19-378, limits assumed); assay: flow cytometry, anti-HIS antibody
T9 construct: whole, on cells; also called IL3RA

[10] = target: T10, CD22 (UniProt P20273 20-847, limits assumed); assay: flow cytometry, anti-HIS antibody
T10 construct: whole, on cells

[11] = target: T11, CD37 (UniProt P11049 1-281, limits assumed); assay: flow cytometry, anti-HIS antibody
T11 construct: whole, on cells
T11 sequence (looked up): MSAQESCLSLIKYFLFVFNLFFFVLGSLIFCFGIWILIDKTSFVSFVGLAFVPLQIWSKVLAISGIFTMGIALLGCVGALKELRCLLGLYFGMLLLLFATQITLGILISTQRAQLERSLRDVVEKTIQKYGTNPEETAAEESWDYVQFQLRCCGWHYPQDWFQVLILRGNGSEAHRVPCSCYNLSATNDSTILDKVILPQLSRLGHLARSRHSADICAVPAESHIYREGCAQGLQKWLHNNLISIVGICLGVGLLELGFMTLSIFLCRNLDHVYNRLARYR

[12] = target: T10, CD22; assay: flow cytometry (data not shown)

T1 sequence (P08637 17-254): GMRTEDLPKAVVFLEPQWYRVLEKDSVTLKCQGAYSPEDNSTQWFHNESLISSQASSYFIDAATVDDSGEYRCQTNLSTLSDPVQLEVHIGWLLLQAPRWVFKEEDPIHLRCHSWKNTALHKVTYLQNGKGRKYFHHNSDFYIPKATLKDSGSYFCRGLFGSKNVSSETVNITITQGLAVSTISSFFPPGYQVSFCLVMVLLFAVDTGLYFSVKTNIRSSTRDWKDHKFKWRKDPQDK
T6 sequence (P20138 18-364 limits assumed): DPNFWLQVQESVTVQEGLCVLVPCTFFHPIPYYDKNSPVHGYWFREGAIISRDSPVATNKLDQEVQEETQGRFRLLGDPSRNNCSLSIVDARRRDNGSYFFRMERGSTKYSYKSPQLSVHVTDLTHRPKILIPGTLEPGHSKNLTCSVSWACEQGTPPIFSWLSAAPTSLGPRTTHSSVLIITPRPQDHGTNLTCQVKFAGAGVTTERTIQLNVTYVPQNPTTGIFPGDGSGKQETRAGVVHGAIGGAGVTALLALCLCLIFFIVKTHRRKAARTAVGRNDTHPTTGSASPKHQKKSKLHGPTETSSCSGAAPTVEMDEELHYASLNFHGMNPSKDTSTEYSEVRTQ
T9 sequence (P26951 19-378 limits assumed): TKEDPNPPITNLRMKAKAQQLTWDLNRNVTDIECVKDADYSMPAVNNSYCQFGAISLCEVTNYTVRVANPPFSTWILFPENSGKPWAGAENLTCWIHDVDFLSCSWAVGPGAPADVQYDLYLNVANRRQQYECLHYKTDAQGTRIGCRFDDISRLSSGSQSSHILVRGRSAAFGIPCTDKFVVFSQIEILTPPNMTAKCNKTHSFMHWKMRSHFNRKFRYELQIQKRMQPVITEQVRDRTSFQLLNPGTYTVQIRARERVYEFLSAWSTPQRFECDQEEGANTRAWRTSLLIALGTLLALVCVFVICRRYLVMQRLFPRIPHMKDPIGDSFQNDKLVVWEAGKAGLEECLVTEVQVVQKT

B1: OR_BiKE2 OR106 (CD16 x nfP2X7) (bispecific antibody)
chain: DIVLTQSPASLAVSLGQRATISCKASQSVDFDGDSFMNWYQQKPGQPPKLLIYTTSNLESGIPARFSASGSGTDFTLNIHPVEEEDTATYYCQQSNEDPYTFGGGTKLEIKGGGGSGGGGSGGGGSQVTLKESGPGILQPSQTLSLTCSFSGFSLRTSGMGVGWIRQPSGKGLEWLAHIWWDDDKRYNPALKSRLTISKDTSSNQVFLKIASVDTADTATYYCAQINPAWFAYWGQGTLVTVSSVEGGSGGSGGSGGSGGVDEVQLLESGGGLVQPGGSLRLSCAASGFTFRNHDMGWVRQAPGKGLEWVSAISGSGGSTYYANSVKGRFTISRDNSKNTLYLQMNSLRAEDTAVYYCAEPKPMDTEFDYRSPGTLVTVSSGGGGSGGGGSGGGGSDIQMTQSPSSLSASVGDRVTITCRASQYIYDYLNWYQQKPGKAPKLLIYAASYLQSGVPSRFSGSGSGTDFTLTISSLQPEDFATYYCQQYHHPSTFGQGTKVEIKRHHHHHH
notes: 3G8 scFv-linker-BIL03/WTB1 scFv-6xHis
**Q.** Does B1 bind [1]?
**A.** Result: binds

B2: EGFR bridging molecule derived from matuzumab (Fab, V domains shown)
VH: QVQLVQSGAEVKKPGASVKVSCKASGYTFTSHWMHWVRQAPGQGLEWIGEFNPSNGRTNYNEKFKSKATMTVDTSTNTAYMELSSLRSEDTAVYYCASRDYDYDGRYFDYWGQGTLVTVSS
VL: DIQMTQSPSSLSASVGDRVTITCSASSSVTYMYWYQQKPGKAPKLLIYDTSNLASGVPSRFSGSGSGTDYTFTISSLQPEDIATYYCQQWSSHIFTFGQGTKVEIKR
notes: also called B035; EGFR, Matuzumab, B035-1_LC / B035-2_HC
**Q.** Does B2 bind [2]?
**A.** Result: binds

B3: ROR1 bridging molecule derived from ROR1 APC (WO2016016344A1_D10v3) (Fab, V domains shown)
VH: QVQLKESGPGLVAPSQTLSITCTVSGFSLTSYGVHWVRQPPGKGLEWLGVIWAGGFTNYNSALKSRLSISKDNSKSQVLLKMTSLQTDDTAMYYCARRGSSYSMDYWGQGTSVTVSS
VL: EIVLSQSPAITAASLGQKVTITCSASSNVSYIHWYQQRSGTSPRPWIYEISKLASGVPVRFSGSGSGTSYSLTISSMEAEDAAIYYCQQWNYPLITFGSGTKLEIQR
notes: Fab with E200 at the N-terminus of the light chain, 6xHis on both chains; also called B044; ROR-1, clone D10v3, B044-1 LC / B044-2_HC
**Q.** Does B3 bind [3]?
**A.** Result: binds

B4: CD70 bridging molecule derived from cusatuzumab (Fab, V domains shown)
VH: EVQLVESGGGLVQPGGSLRLSCAASGFTFSVYYMNWVRQAPGKGLEWVSDINNEGGTTYYADSVKGRFTISRDNSKNSLYLQMNSLRAEDTAVYYCARDAGYSNHVPIFDSWGQGTLVTVSS
VL: SQAVVTQEPSLTVSPGGTVTLTCGLKSGSVTSDNFPTWYQQTPGQAPRLLIYNTNTRHSGVPDRFSGSILGNKAALTITGAQADDEAEYFCALFISNPSVEFGGGTQLTVLK
notes: Fab with E200 at the N-terminus of the light chain, 6xHis on both chains; also called B028; CD70, Cusatuzumab, B028-1_LC / B028-2_HC
**Q.** Does B4 bind [4]?
**A.** Result: binds

B5: CD79B bridging molecule derived from polatuzumab (Fab, V domains shown)
VH: EVQLVESGGGLVQPGGSLRLSCAASGYTFSSYWIEWVRQAPGKGLEWIGEILPGGGDTNYNEIFKGRATFSADTSKNTAYLQMNSLRAEDTAVYYCTRRVPIRLDYWGQGTLVTVSS
VL: DIQLTQSPSSLSASVGDRVTITCKASQSVDYEGDSFLNWYQQKPGKAPKLLIYAASNLESGVPSRFSGSGSGTDFTLTISSLQPEDFATYYCQQSNEDPLTFGQGTKVEIKR
notes: Fab with E200 at the N-terminus of the light chain, 6xHis on both chains; also called B025; CD79B, Polatuzumab, B025-1 LC / B025-2_HC
**Q.** Does B5 bind [5]?
**A.** Result: binds

B6: CD33 BRiDGE (B031) (Fab, V domains shown)
VH: QVQLVQSGAEVKKPGSSVKVSCKASGYTFTDYNMHWVRQAPGQGLEWIGYIYPYNGGTGYNQKFKSKATITADESTNTAYMELSSLRSEDTAVYYCARGRPAMDYWGQGTLVTVSS
VL: DIQMTQSPSSLSASVGDRVTITCRASESVDNYGISFMNWFQQKPGKAPKLLIYAASNQGSGVPSRFSGSGSGTDFTLTISSLQPDDFATYYCQQSKEVPWTFGQGTKVEIKR
notes: 6xHis on both chains; also called CD33 bridging molecule; CD33 Fab
**Q.** Does B6 bind [6]?
**A.** Result: binds

B7: OR_BiKE1 OR105 (nfP2X7 x CD16) (bispecific antibody)
chain: DIQMTQSPSSLSASVGDRVTITCRASQYIYDYLNWYQQKPGKAPKLLIYAASYLQSGVPSRFSGSGSGTDFTLTISSLQPEDFATYYCQQYHHPSTFGQGTKVEIKRGGGGSGGGGSGGGGSEVQLLESGGGLVQPGGSLRLSCAASGFTFRNHDMGWVRQAPGKGLEWVSAISGSGGSTYYANSVKGRFTISRDNSKNTLYLQMNSLRAEDTAVYYCAEPKPMDTEFDYRSPGTLVTVSSVEGGSGGSGGSGGSGGVDQVTLKESGPGILQPSQTLSLTCSFSGFSLRTSGMGVGWIRQPSGKGLEWLAHIWWDDDKRYNPALKSRLTISKDTSSNQVFLKIASVDTADTATYYCAQINPAWFAYWGQGTLVTVSSGGGGSGGGGSGGGGSDIVLTQSPASLAVSLGQRATISCKASQSVDFDGDSFMNWYQQKPGQPPKLLIYTTSNLESGIPARFSASGSGTDFTLNIHPVEEEDTATYYCQQSNEDPYTFGGGTKLEIKHHHHHH
**Q.** Does B7 bind [1]?
**A.** Result: binds

B8: CD135 bridging molecule derived from 4G8 (Fab, V domains shown)
VH: QVQLQQPGAELVKPGASLKLSCKSSGYTFTSYWMHWVRQRPGHGLEWIGEIDPSDSYKDYNQKFKDKATLTVDRSSNTAYMHLSSLTSDDSAVYYCARAITTTPFDFWGQGTTLTVSS
VL: DIVLTQSPATLSVTPGDSVSLSCRASQSISNNLHWYQQKSHESPRLLIKYASQSISGIPSRFSGSGSGTDFTLSINSVETEDFGVYFCQQSNTWPYTFGGGTKLEIKR
notes: Fab with E200 at the N-terminus of the light chain, 6xHis on both chains; also called B041; CD135, clone 4G8, B041-1_LC / B041-2_HC
**Q.** Does B8 bind [7]?
**A.** Result: binds

B9: BCMA bridging molecule derived from clone CA8 J9M0 (Fab, V domains shown)
VH: QVQLVQSGAEVKKPGSSVKVSCKGSGYTFTNYWMHWVRQAPGQGLEWIGATYRGHSDTYYNQKFKGRATLTADTSTSTAYMELSSLRSEDTAVYYCTRGAIYDGYDVLDNWGQGTLVTVSS
VL: DIQMTQSPSSLSASVGDRVTITCSASQDISNYLNWYQQKPGKAPKLLIYYTSNLHSGVPSRFSGSGSGTDFTLTISSLQPEDFATYYCQQYRKLPWTFGQGTKLEIKR
notes: Fab with E200 at the N-terminus of the light chain, 6xHis on both chains; also called B039; BCMA, clone CA8 J9M0, B039-1_LC / B039-2_HC
**Q.** Does B9 bind [8]?
**A.** Result: binds

B10: CD123 bridging molecule derived from clone 32716 (Fab, V domains shown)
VH: QIQLVQSGPELKKPGETVKISCKASGYIFTNYGMNWVKQAPGKSFKWMGWINTYTGESTYSADFKGRFAFSLETSASTAYLHINDLKNEDTATYFCARSGGYDPMDYWGQGTSVTVSS
VL: DIVLTQSPASLAVSLGQRATISCRASESVDNYGNTFMHWYQQKPGQPPKLLIYRASNLESGIPARFSGSGSRTDFTLTINPVEADDVATYYCQQSNEDPPTFGAGTKLELKR
notes: Fab with E200 at the N-terminus of the light chain, 6xHis on both chains; also called B042; CD123, clone 32716, B042-1_LC / B042-2_HC
**Q.** Does B10 bind [9]?
**A.** Result: binds

B11: CD22 bridging molecule derived from m971-L7 (Fab, V domains shown)
VH: QVQLQQSGPGMVKPSQTLSLTCAISGDSVSSNSVAWNWIRQSPSRGLEWLGRTYYRSTWYNDYAVSMKSRITINPDTNKNQFSLQLNSVTPEDTAVYYCAREVTGDLEDAFDIWGQGTMVTVSS
VL: DIQMIQSPSSLSASVGDRVTITCRASQTIWSYLNWYRQRPGEAPNLLIYAASSLQSGVPSRFSGRGSGTDFTLTISSLQAEDFATYYCQQSYSIPQTFGQGTKLEIKR
notes: Fab with E200 at the N-terminus of the light chain, 6xHis on both chains; also called B023; CD22, m971-L7, B023-1 LC / B023-2_Heavy Chain
**Q.** Does B11 bind [10]?
**A.** Result: binds

B12: CD37 bridging molecule derived from otlertuzumab (Fab, V domains shown)
VH: EVQLVQSGAEVKKPGESLKISCKGSGYSFTGYNMNWVRQMPGKGLEWMGNIDPYYGGTTYNRKFKGQVTISADKSISTAYLQWSSLKASDTAMYYCARSVGPFDSWGQGTLVTVSS
VL: EIVLTQSPATLSLSPGERATLSCRASENVYSYLAWYQQKPGQAPRLLIYFAKTLAEGIPARFSGSGSGTDFTLTISSLEPEDFAVYYCQHHSDNPWTFGQGTKVEIKR
notes: Fab with E200 at the N-terminus of the light chain, 6xHis on both chains; also called B026; CD37, Otlertuzumab, B026-1_LC / B026-2_HC
**Q.** Does B12 bind [11]?
**A.** Result: binds

B13: CD22 bridging molecule derived from inotuzumab (Fab, V domains shown)
VH: EVQLVQSGAEVKKPGASVKVSCKASGYRFTNYWIHWVRQAPGQGLEWIGGINPGNNYATYRRKFQGRVTMTADTSTSTVYMELSSLRSEDTAVYYCTREGYGNYGAWFAYWGQGTLVTVSS
VL: DVQVTQSPSSLSASVGDRVTITCRSSQSLANSYGNTFLSWYLHKPGKAPQLLIYGISNRFSGVPDRFSGSGSGTDFTLTISSLQPEDFATYYCLQGTHQPYTFGQGTKVEIKR
notes: also called B024; CD22, Inotuzumab, B024-1_LC / B024-2_HC
**Q.** Does B13 bind [12]?
**A.** Result: binds

Source: patent US20240368282A1 (BIOSCEPTRE AUST, published 2024)
